Reference: publication doi:10.1101/2021.03.25.436565
Read-outs that look alike come from different tables or passages of the source.

Assays:
Experiment in all cases: EMSA
[1] = target: T1, CSB-HD (helicase-like domain) (human, UniProt Q03468 498-1002)
[2] = target: T1, CSB-HD (helicase-like domain); remark: listed apart in the source
[3] = target: T1, CSB-HD (helicase-like domain); remark: listed apart in the source
[4] = target: T1, CSB-HD (helicase-like domain); remark: listed apart in the source
[5] = target: T1, CSB-HD (helicase-like domain); remark: listed apart in the source

T1 sequence (Q03468 498-1002): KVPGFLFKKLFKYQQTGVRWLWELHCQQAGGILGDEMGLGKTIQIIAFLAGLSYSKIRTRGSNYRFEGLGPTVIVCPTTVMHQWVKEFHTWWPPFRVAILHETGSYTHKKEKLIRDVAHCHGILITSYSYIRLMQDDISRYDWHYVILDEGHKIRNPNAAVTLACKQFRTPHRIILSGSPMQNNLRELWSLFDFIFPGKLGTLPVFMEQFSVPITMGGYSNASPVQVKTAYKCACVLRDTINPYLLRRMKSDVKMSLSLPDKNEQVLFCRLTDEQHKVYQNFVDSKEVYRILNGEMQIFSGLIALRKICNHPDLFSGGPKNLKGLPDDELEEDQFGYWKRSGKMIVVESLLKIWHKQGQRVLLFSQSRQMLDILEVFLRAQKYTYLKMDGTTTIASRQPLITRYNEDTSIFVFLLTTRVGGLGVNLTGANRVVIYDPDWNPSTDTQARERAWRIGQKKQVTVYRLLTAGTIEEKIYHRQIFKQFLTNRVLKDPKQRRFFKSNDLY

Molecule: 3'-tailed rDNA
- Kd [1]: 0.176 nM

Molecule: 5'-tailed rDNA, annealed in KCl (intermolecular G4)
- Kd [1]: 0.557 nM

B1: 5'-tailed rDNA-2 (structured_DNA)
DNA: ATAATTATAAATAAATAATAGGGTCGGGGGGTGGGGCCCGGGCCGGGG
- Kd [2]: 0.36 nM

B2: untailed rDNA-2 (structured_DNA)
DNA: AGGGTCGGGGGGTGGGGCCCGGGCCGGGG
- binding result [3]: no binding

B3: untailed c-MYC (structured_DNA)
DNA: TGAGGGTGGGTAGGGTGGGTAA
- binding result [3]: no binding

B4: 3'-tailed c-MYC (structured_DNA)
DNA: AAATGGGTGGGTAGGGTGGGTATAATTATAAATAAATAATA
- binding result [4]: no binding

B5: 5'-tailed rDNA-3 (structured_DNA)
DNA: ATAATTATAAATAAATAATAGGGAGGGAGACGGGGGGG
- Kd [2]: 0.977 nM

B6: 5'-tailed O. nova d(G4T4G4) (structured_DNA)
DNA: ATAATTATAAATAAATAATGGGGTTTTGGGG
- Kd [5]: 0.00988 nM
